Measured values from patent US11697680B2, “Anti-GP73 antibodies and immunoconjugates” (CUREAB GMBH, priority 2016, dated 2023).
“Also recorded” adds a separate entry of the source.

B1: mG2-2: G2-2 variable regions with murine IgG2a heavy chain and human Igk light chain constant regions (antibody)
heavy: EVQLLQSGGGVVQPGRSLRLSCAASGFTFSSYGMSWVRQAPGKGLEWVAVISYDGSNKYYADSVKGRFTISRDNSKNTLYLQMNSLRAEDTAVYYCAREGSAGMDVWGQGTTVTVSSASTTAPSVYPLAPVCGDTTGSSVTLGCLVKGYFPEPVTLTWNSGSLSSGVHTFPAVLQSDLYTLSSSVTVTSSTWPSQSITCNVAHPASSTKVDKKIEPRGPTIKPCPPCKCPAPNLLGGPSVFIFPPKIKDVLMISLSPIVTCVVVDVSEDDPDVQISWFVNNVEVHTAQTQTHREDYNSTLRVVSALPIQHQDWMSGKEFKCKVNNKDLPAPIERTISKPKGSVRAPQVYVLPPPEEEMTKKQVTLTCMVTDFMPEDIYVEWTNNGKTELNYKNTEPVLDSDGSYFMYSKLRVEKKNWVERNSYSCSVVHEGLHNHHTTKSFSRTPGK
light: DIQMTQPSSLSASPGASASLTCTLRSDISVGFHRIYWYQQKPGSPPQYLLRYKSDSDKQQGSGVPSRFSGSKDASANAGILLISGLQSDDEADYYCVIWHTSGVVFGGGTKVEIKRTVAAPSVFIFPPSDEQLKSGTASVVCLLNNFYPREAKVQWKVDNALQSGNSQESVTEQDSKDSTYSLSSTLTLSKADYEKHKVYACEVTHQGLSSPVTKSFNRGEC
B2: G2-2opti (IgG1): G2-2 optimized for expression in mammalian cells by directed mutagenesis of framework; CDRs untouched (antibody, V domains shown)
VH: QVQLVQSGGGVVQPGRSLRLSCAASGFTFSSYGMHWVRQAPGKGLEWVAVISYDGSNKYYADSVKGRFTISRDNSKNTLYLQMNSLRAEDTAVYYCAREGSAGMDVWGQGTTVTVSS
VL: QAVLTQPSSLSASPGASASLTCTLRSDISVGFHRIYWYQQKPGSPPQYLLRYKSDSDKQQGSGVPSRFSGSKDASANAGILLISGLQSDDEADYYCVIWHTSGVVFGGGTKLTVL
B3: G2-4: hybridoma antibody against peptide AA 347-366 of human GP73 (sGP73); VH/VL SEQ ID NOs: 18 and 19 (antibody, V domains shown)
VH: QVQLEESGGGLVQPGGSLRLSCATSGFTFTDYYMSWVRQPPGKALEWLGFIRNKAKGYTTEYSASVKGRFTISRDNSQSILYLQMNTLRAEDSATYYCARDPSTNYWYFDVWGAGTTVTVSS
VL: DIVLTQSPSSLAVSAGEKVTMTCKSSQSLLNSRTRKNYLAWYQQKPGQSPKLLIYWASTRESGVPDRFTGSGSGTDFTLTISSVQAEDLAVYYCKQSYNLYTFGGGTKLEIKR
modifications: G2-4 heavy chain variable region (VH); G2-4 light chain variable region (VL)

Experiments:
[1] = tested on: HEK293 GP73-His full length cells; experiment: Furin blockage experiment: sGP73 in cell culture supernatant (Up-converting Phosphor Technology); type: cell-based, human; settings: 31.3 ug/ml or 62.5 ug/ml; after 96 hours
Description: FIG. 23 Measurement of sGP73 in cell culture supernatant after treatment of 293HEK GP73-His full length cells with Bevacizumab or G2-2opti (IgG1). Furin cleavage is a prerequisite for sGP73 to appear in the supernatant.
HEK293 GP73-His full length cells were seeded in 96 well plates 1500 cells per well and cultured overnight. Next day, medium was changed and cells were treated with Bevacizumab 31.3 ug/ml, Bevacizumab 62.5 ug/ml, G2-2opti(IgG1) 31.3 ug/ml or G2-2opti (IgG1) 62.5 ug/ml. To examine furin cleavage inhibition the respective antibody concentrations were chosen in a range that had no impact on cell proliferation. After 96 hours the supernatants were collected for measurement of sGP73 exploiting the Up-converting Phosphor Technology (UCP) and the remaining cell layer was used in a proliferation assay with PrestoBlue reagent (Thermofisher) described in Example 8.
For sGP73 detection each supernatant was diluted 1:1 in Hotgen dilution buffer containing an anti GP73 UCP labelled antibody. […] GP73 concentrations were deduced from differences of light emission at the C and T line measured by inserting the test cassette into the Hotgen Up-converting Phosphor Technology (UCP) Analyser.

[2] = tested on: HuH7 (human hepatocellular carcinoma); experiment: Cell viability / proliferation with PrestoBlue reagent; type: cell-based; settings: 0.125 mg/ml to 2 mg/ml, after 72 hrs
Description: FIG. 13A Proliferation of HuH7 cells (human hepatocellular carcinoma) after treatment with different antibodies. HuH7 cells were treated with G2-2, G2-2 plus Cetuximab, mG2-2, mG2-2 plus Cetuximab, Cetuximab or control antibody each in increasing concentrations from 0.125 mg/ml to 2 mg/ml. Proliferating cells were measured after 72 hrs. […] This effect was independent of the Fc part i.e. human IgG1 in G2-2 or murin IgG2a in mG2-2 as described in Example 8.
FIG. 13B Proliferation of HuH7 cells (human hepatocellular carcinoma), 4T1 cells (murin breast carcinoma) and CaCo2 cells (human colorectal carcinoma) after treatment with different antibodies. The three cell lines were treated with G2-1, G2-1 plus Cetuximab, Cetuximab, Bevacizumab or Bevacizumab plus Cetuximab 2 mg/ml total. Proliferating cells were measured after 72 hrs.
Cells from the cell lines HuH7 (human hepatocellular carcinoma), 4T1 (murin breast carcinoma) and CaCo2 (human colorectal carcinoma) were cultured under standard conditions in Dulbecco's modified Eagle Medium (DMEM) supplemented with 10% fetal calf serum (FCS) at 37° C. with 5% CO2. […] Fluorescence was read at 615 nm to quantify cell viability. […]
To test the effect of G2-1 on different cell lines, HuH7, 4T1 and CaCo2 cells were transferred to 96 well plates. […] Cell viability was quantified after 72 hours using PrestoBlue reagent and measuring the fluorescence at 615 nm.

HuH7 cells = experiment: Internalization of pHrodo Green labeled antibodies after pre-incubation with conditioned media containing soluble GP73; type: cell-based, human; settings: 10 ug/ml pHrodo Green labeled antibody pre-incubated over night, 24 h at 37° C.
Description: Antibody internalization was measured by FACS using the pH-sensitive dye pHrodo Green coupled to each antibody. […] The internalization of G2-2 that binds to rGP73 is not altered as described in Example 6.
Labeled antibodies were purified by size exclusion (40K MWCO). A non binding Isotype Antibody that was not labeled with pHrodo® Green STP Ester (Iso.) was used as control for background fluorescence. 10 ug/ml of each antibody was pre-incubated over night at 4° C. with either fresh culture media or conditioned media. As conditioned media served either supernatant from HEK 293 or HEK 293 GP73-myc cells cultured for 72 hours, that was dialyzed (10 k MWCO) against 1 L fresh media each. To confirm the presence of secreted soluble GP73 after dialysis supernatants were analysed by Western Blot using an anti-myc antibody. 300 ul/well of each pre-incubated antibody was given to 0.6×10^6HuH7 cells growing in 24 well plates for 24 h at 37° C. and 5% CO2. Cells were washed and analysed by FACS.

Molecule	sGP73 in cell culture supernatant [1]	also measured
Bevacizumab: the isotype control [reference compound]	no influence on sGP73 levels	
B1		cell proliferation / cell viability [2]: reduced depending on antibody concentration
B2	decreases sGP73 secretion into supernatant; also recorded: reduce GP73 concentration	
B3		effect of conditioned media containing soluble GP73 on antibody internalization / cell surface binding (HuH7 cells): reduces antibody binding; also recorded: reduces internalization
